According to article PMC4719306 (Genes & Development, 2016):

B1: Strep-tagged N-terminal BRCT1–2 domain fragment of PTIP (recombinant) (domain or fragment)
chain: VPEELFREVKYYAVGDIDPQVIQLLKAGKAKEVSYNALASHIISEDGDNPEVGEAREVFDLPVVKPSWVTLSVQCGALLPVNGFSPESCQIFFGLTACLSQVSSEDRSALWALVTFHGGSCQLNLNKKCTHLIVPEPKGEKYERAVKRTSIKIVTPDWVLDCVSEKRRKDEAFYHP
B2: Flag-tagged full-length PA1 (recombinant) (natural protein, UniProt Q99L02 1-253, looked up)
chain: MSLALGHGTIAGSTAAPLSEEGEVTSGLQALAVEDTGGPSVSASKAEEEGKGSQEEAGREGSRPEEALEAPSAASDERAEGEAEDWCVPCSDEEVELPANGQSWMPPPSEIQRLYELLATQGTLELQAEILPRRPPTPEAQSEEERSDEEPEAKEEEEEKPHMPTEFDFDDEPMTPKDSLIDRRRTPGSSARSQKREARLDKVLSDMKRHKKLEEQILRTGRDLFSLDSEGPSPTSPPLRSSGNSLFPRQRKY

How the values were obtained:
[1] = molecular target: B2; experiment: ITC
[2] = molecular target: B1; experiment: ITC

Row | Binder | Kd [1] | dH [2] | stoichiometry N [2]
1 | B1 | 7.1 nM | – | –
2 | B2 | – | -109 kJ/mol | 1
